From article PMC2228010, “Production and characterization of a recombinant anti-MUC1 scFv reactive with human carcinomas” (British Journal of Cancer, 1997)
Where a chain is given by its changes, count along the chain named.

Tests used:
105 mer MUC1 peptide = biological target: T1, 105 mer MUC1 peptide (Homo sapiens MUC1 repeat, synthetic, UniProt P15941); assay: other fluorescence titration; fluorescence quenching in PBS, excitation 290 nm, emission 345 nm; C595 0.12 uM or C595 scFv 0.27 uM, 2.5 ul aliquots of 60 uM peptide added until maximum quenching; Scatchard analysis; details: both partners purified
T1 construct: source: synthetic peptide, provided by Dr J Darrell Fontenot

60 mer MUC1 peptide = biological target: T2, 60 mer MUC1 peptide (Homo sapiens MUC1 repeat, synthetic, UniProt P15941); assay: as above; details: both partners purified
T2 construct: source: synthetic peptide, provided by Dr J Darrell Fontenot

p(1-25) peptide = biological target: T3, p(1-25) peptide (Homo sapiens MUC1 repeat, synthetic); assay: as above; details: both partners purified
T3 construct: 25 residues of the MUC1 tandem repeat region; source: synthetic peptide

[1] = biological target: T4, immunodominant region related peptide APDTRPAPG (Homo sapiens MUC1 repeat, synthetic); assay: as above; details: both partners purified
T4 construct: stretch of the MUC1 20 amino acid repeat; Free in solution for fluorescence quenching; source: synthetic peptide
T4 chain: APDTRPAPG

[2] = biological target: T5, MUC1 antigen on human breast and bladder carcinoma tissue sections (Homo sapiens, UniProt P15941); assay: immunostaining of cells or tissue; 3 um paraffin sections of breast and transitional cell bladder tumours, no antigen retrieval; primary antibody 1 h; scFv detected with mouse anti-E-Tag (1:50); StreptABC/HRP, diaminobenzidine; details: one partner purified
T5 construct: MUC1 mucin in tumour tissue; also called breast tumour tissue sections; sections from bladder carcinomas; source: endogenous, archival paraffin sections of breast and transitional cell bladder tumours

[3] = biological target: T4, immunodominant region related peptide …; assay: peptide epitope affinity chromatography; filtered bacterial supernatant applied to Sepharose 4B conjugated to APDTRPAPG; washed with PBS, 0.02% sodium azide; bound scFv eluted with 3 M sodium thiocyanate; eluate analysed by SDS-PAGE and anti-E-Tag Western blot; details: one partner purified

Measured: binding result

T5 sequence (P15941 24-1255): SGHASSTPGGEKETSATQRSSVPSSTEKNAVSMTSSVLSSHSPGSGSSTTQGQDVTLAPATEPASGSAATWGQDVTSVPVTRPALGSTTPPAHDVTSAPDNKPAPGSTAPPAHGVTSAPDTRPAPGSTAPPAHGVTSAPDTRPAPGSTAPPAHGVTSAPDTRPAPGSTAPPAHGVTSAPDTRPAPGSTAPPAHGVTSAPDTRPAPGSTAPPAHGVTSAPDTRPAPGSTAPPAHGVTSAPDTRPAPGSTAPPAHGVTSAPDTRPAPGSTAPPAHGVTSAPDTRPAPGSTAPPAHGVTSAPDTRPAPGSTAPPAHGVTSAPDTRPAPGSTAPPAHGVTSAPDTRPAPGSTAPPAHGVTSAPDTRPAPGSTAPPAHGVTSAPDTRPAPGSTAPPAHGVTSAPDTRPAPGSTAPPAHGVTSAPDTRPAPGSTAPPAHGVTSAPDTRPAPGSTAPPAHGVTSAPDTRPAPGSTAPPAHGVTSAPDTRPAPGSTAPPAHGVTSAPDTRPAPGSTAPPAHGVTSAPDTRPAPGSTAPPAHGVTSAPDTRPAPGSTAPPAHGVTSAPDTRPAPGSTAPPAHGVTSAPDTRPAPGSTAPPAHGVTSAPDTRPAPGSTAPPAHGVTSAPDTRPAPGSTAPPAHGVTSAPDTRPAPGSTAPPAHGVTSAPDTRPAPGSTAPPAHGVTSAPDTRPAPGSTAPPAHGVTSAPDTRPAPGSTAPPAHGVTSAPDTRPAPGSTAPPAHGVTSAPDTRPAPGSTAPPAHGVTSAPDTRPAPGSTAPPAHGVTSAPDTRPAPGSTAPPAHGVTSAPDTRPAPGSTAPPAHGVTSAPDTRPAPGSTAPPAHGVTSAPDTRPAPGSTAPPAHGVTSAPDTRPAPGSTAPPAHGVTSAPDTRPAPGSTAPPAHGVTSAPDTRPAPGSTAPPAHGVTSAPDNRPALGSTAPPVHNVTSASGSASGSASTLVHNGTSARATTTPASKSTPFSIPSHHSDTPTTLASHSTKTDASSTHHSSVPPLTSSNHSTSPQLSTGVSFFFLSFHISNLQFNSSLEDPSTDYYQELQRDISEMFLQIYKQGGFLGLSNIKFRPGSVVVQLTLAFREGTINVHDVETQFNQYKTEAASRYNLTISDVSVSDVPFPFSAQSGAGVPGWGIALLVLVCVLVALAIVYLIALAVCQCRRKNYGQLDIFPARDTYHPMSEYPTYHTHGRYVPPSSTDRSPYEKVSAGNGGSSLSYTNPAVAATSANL
T3 sequence (peptide, as listed by the source): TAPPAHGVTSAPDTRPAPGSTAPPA

B1: Monoclonal antibody C595 (antibody, V domains shown)
VH: EVQLVESGGGLVQPGGSLKLSCAASGFTFSSYGMSWVRQTPDKRLELVATINSNGGSTYYPDSVKGRFTISRDNAKNTLYLQMSSLKSEDTAMYYCARDRDGYDEGFDYWG
VL: QIVLTQSPAIMSASPGEKVTMTCSASSSVSYMHWYQQKSGTSPKRWIYDTSKLASGVPARFSGSGSGTSYSLTISSMEAEDAATYYCQQWSSNPPTFGGGTKLEIK
notes: mouse IgG3 heavy chain constant region; mouse kappa light chain constant region; IgG3, kappa light chain; it was used at stated concentrations in PBS; also called NCRC-48; source: hybridoma (spleen cells of a BALB/c mouse immunized against purified MUC1 urinary mucin)
binds: 105 mer MUC1 peptide | 60 mer MUC1 peptide | p(1-25) peptide | [1] | [2]

B2: C595 scFv clone 31 (scFv, V domains shown)
VH: QVQLQESGGGLVQPGGSLKLSCAASGFTFSSYGMSWVRQTPDKRLELVATINSNGGSTYYPDSVKGRFTISRDNAKNTLYLQMSSLKSEDTAMYYCARDRDGYDEGFDYWGPGTTVTVSS
VL: B1 VL with Q1D, V3E, A9S, G100R, I105L
notes: it is not written as a part; About 30 kDa on SDS-PAGE; also called recombinant C595 scFv; the scFv; source: E. coli HB2151 (pCANTAB 5E, IPTG), bacterial culture supernatant; not shown: E-Tag, C-terminal, kept
binds: 105 mer MUC1 peptide | 60 mer MUC1 peptide | p(1-25) peptide | [3] | [2]
